Experimental data: paper PMC12480911, “Visualization of liquid-liquid phase transitions using a tiny G-quadruplex binding protein”

Experiments:
[1] = target: T1, SERF2 (human, UniProt P84101 1-59); test: fluorescence polarization; conditions: stated as sub-micromolar, FP/anisotropy: 20 mM NaPi pH 7.4, 100 mM KCl, 25 C (20-200 nM probe), NMR: same buffer, 4 C
T1 sequence: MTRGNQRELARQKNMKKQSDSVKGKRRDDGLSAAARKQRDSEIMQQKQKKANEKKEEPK

[2] = target: T1, SERF2; test: fluorescence polarization; 100 mM KCl; FP/anisotropy: 20 mM NaPi pH 7.4, 100 mM KCl, 25 C (20-200 nM probe); NMR: same buffer, 4 C; conditions: protein: recombinant, tags: His-SUMO removed, AF488-labeled in some assays
[3] = target: T1, SERF2; test: fluorescence polarization/anisotropy; stated as sub-micromolar; FP/anisotropy: 20 mM NaPi pH 7.4, 100 mM KCl, 25 C (20-200 nM probe); NMR: same buffer, 4 C; conditions: protein: recombinant; tags: His-SUMO removed; AF488-labeled in some assays; label: Cy3; G4
[4] = target: T1, SERF2; test: EMSA; 10 uM RNA, 5-40 uM SERF2; FP/anisotropy: 20 mM NaPi pH 7.4, 100 mM KCl, 25 C (20-200 nM probe); NMR: same buffer, 4 C; conditions: protein: recombinant; tags: His-SUMO removed; AF488-labeled in some assays; G4
[5] = target: T1, SERF2; test: fluorescence polarization; stated as sub-micromolar; FP/anisotropy: 20 mM NaPi pH 7.4, 100 mM KCl, 25 C (20-200 nM probe); NMR: same buffer, 4 C; conditions: protein: recombinant; tags: His-SUMO removed; AF488-labeled in some assays; label: 6-FAM; G4
[6] = target: T1, SERF2; test: NMR (HSQC, imino 1H, STD); FP/anisotropy: 20 mM NaPi pH 7.4, 100 mM KCl, 25 C (20-200 nM probe); NMR: same buffer, 4 C; conditions: protein: recombinant; tags: His-SUMO removed; AF488-labeled in some assays; dimeric G4 (2 strands)
[7] = target: T2, SERF2 K25A (human, UniProt P84101 1-59, K25A); test: EMSA; 5 uM each; minimally affected; FP/anisotropy: 20 mM NaPi pH 7.4, 100 mM KCl, 25 C (20-200 nM probe); NMR: same buffer, 4 C; conditions: protein: recombinant; tags: His-SUMO removed; label: 6-FAM (FP); unlabeled (NMR, EMSA); intramolecular G4
T2 sequence: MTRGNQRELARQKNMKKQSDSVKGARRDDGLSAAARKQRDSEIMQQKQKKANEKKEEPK

[8] = target: T3, SERF2 K23A (human, UniProt P84101 1-59, K23A); test: as above; conditions: protein: recombinant; tags: His-SUMO removed; label: 6-FAM (FP); unlabeled (NMR, EMSA); intramolecular G4
T3 sequence: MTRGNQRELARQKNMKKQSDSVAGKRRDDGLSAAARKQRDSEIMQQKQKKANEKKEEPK

[9] = target: T4, SERF2 N-terminal domain (human, UniProt P84101 1-32); test: fluorescence polarization; 100 mM KCl; FP/anisotropy: 20 mM NaPi pH 7.4, 100 mM KCl, 25 C (20-200 nM probe); NMR: same buffer, 4 C; conditions: protein: recombinant; label: 6-FAM (FP); unlabeled (NMR, EMSA); intramolecular G4
T4 chain: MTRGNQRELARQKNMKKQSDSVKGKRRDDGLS

## TERRA60
[1]; AF488-SERF2, similar to TERRA23
  Kd: < 1000 nM

## polyG
[1]
  Kd: < 1000 nM

## GAAGGGGAGGGGGCUGGGGGGGGGCAGGG (structured_RNA) [Mark2 rG4]
[2]; label: 6-FAM (FP), G4
  Kd: 4500 ± 500 nM

## AGGAGGAGGAGGAGG (structured_RNA) [(AGG)5]
[3]
  Kd: < 1000 nM

## GGGAAGGGAAGGGGAGUGGG (structured_RNA) [Stxbp5 rG4]
[4]
  binding result: binds

## UGGGGUUGGGGUUGGGGUUGGGGUUGGGGUUGGGGU (structured_RNA) [(UG4U)6]
[2]; label: 6-FAM, G4
  Kd: 730 ± 250 nM

## GGGAGGGAGGGAGGGA (structured_RNA) [(GGGA)4]
[5]
  Kd: < 1000 nM

## UUAGGGUUAGGG (structured_RNA) [TERRA12]
[6]
  binding result: binds

## GGGGCCGGGGCCGGGGCCGGGGCC (structured_RNA) [(G4C2)4 RNA]
[2]; label: 6-FAM, G4
  Kd: 880 ± 100 nM

## UAGGGUUAGGGUUAGGGUUAGGG (structured_RNA) [TERRA23]
[7]
  binding result: binds
[8]
  binding result: binds
[2]; label: 6-FAM (FP), unlabeled (NMR, EMSA), intramolecular G4
  Kd: 300 ± 20 nM
[9]
  binding signal: ~10 fold weaker than full length

## GGAGGAGGAGGAGGAGGAGGA (structured_RNA) [(GGA)7]
[5]
  Kd: < 1000 nM
